{"source": "paper PMC11211449", "molecular_target": "recombinant prefusion RV3 F antigen (human respirovirus 3 fusion glycoprotein, prefusion conformation) (human respirovirus 3 (RV3))", "assay": "cryo-EM structure", "data": [{"substance": "recombinant prefusion RV3 F antigen (human respirovirus 3 fusion glycoprotein, prefusion conformation) (natural protein)", "values": [{"measurement": "stoichiometry N", "result": 3}]}]}
